Assay results from the supplement of paper PMC9732359.
± gives the uncertainty stated by the source.

Test: protein stability index of a GFP-peptide fusion (yeast GPS) (PSI 1-4); higher = more stable; sorted into four equal gates, so the index is relative within each strain
Conditions: doa10∆
Procedure, shortened: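 Mid-log yeast cultures in leucine-free medium, carrying a pooled plasmid library, were sorted into four equal gates by their GFP/Cherry fluorescence ratio. Each plasmid expressed Cherry along with GFP fused upstream of a tiled 17-residue yeast protein peptide. Plasmids recovered from each gate were PCR-amplified and Illumina-sequenced, with reads assigned to strains by barcodes. The protein stability index was obtained by summing each gate's read frequency weighted by its gate number.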

Sequence | protein stability index
GSVFNMNGNTNANTVFA [YOR098C/NUP1] | 2.29 ± 0.095
GTENTERPPLLPILPIQ [YOR098C/NUP1] | 2.42 ± 0.17
GTFGGDGMYSESKLSLE [FAS2] | 2.91 ± 0.046

Same assay, conditions: pdr5∆

Sequence | protein stability index
FTLWWSPTINRANVYVG [PRP8] | 1.88 ± 0.07
FTMMTSEPLTLKVLSEH [PCI8] | 1.96 ± 0.049
FTSAPIEVTIGIDQYSF [AAR2] | 1.93 ± 0.086
FVKFITYLTQEILILIN [SIN4] | 1.7 ± 0.044
FVKFLSKKGSLENNIRE [RPL10] | 3.32 ± 0.16
FVKGISRDIKALQDSLF [YML103C/NUP188] | 2.18 ± 0.058
FVKKTSEEIDSLNEDVE [SMC2] | 3.2 ± 0.19
FVKVTKATLELLKLIEP [RPL7A] | 2.87 ± 0.096
FVSESPSFVKSGKLRDY [ISW2] | 2.11 ± 0.051
FVSSLSNTSTLKNMLYV [BRR2] | 2.08 ± 0.049
FYRGNYTDFENTFQKTV [FAS1] | 2.63 ± 0.062
FYSKNRLLITGTPLQNN [ISW2] | 1.39 ± 0.17
GAELRSVCTEAGMFAIR [RPT1] | 3.4 ± 0.3
GAHLLEFQPSGNVTELY [PRE5] | 2.99 ± 0.076
GAIAYNQFKRIDTLLYL [RET1] | 1.42 ± 0.1
GAIILTKMDGHARGGGA [SRP54] | 3.13 ± 0.16
GAIKPFTPKLIYDFITL [ECM29] | 1.84 ± 0.098
GAKFENIVHNFKERQMM [AAR2] | 2.71 ± 0.096
GAKYVIRDSGDRIDLRY [RPO21] | 3.31 ± 0.15
GANTSAAQTLLQMDYKD [PRE9] | 3.13 ± 0.058
GASTVMKTKTINAQGEE [PRP8] | 3.06 ± 0.15
GDEGYNEDMVRRANFYK [SNF12] | 3.36 ± 0.17
GDIVLTRVTRLSLQRAN [CSL4] | 1.41 ± 0.093
GDKFSEDFRIQFKTTIK [UBP6] | 2.93 ± 0.09

Sequence | protein stability index
GDKVVVTIWYRAPELLL [SSN3] | 1.78 ± 0.072
GEALPNKFHKSIREDIL [SIR2] | 3.04 ± 0.11
GEEDADEEETAEGQTNS [RPN1] | 3.16 ± 0.26
GEFSGKNFSPTKRVEKP [RRP6] | 2.47 ± 0.094
GEGPFTVKFKHMDYDGN [YMR129W/POM152] | 2.86 ± 0.068
GEIEIKPNEEEELGFWD [RPN13] | 3.19 ± 0.097
GEILLPDIADIPRTFRT [SNF5] | 3.18 ± 0.12
GEKTLSSLALVFALHKY [SMC4] | 2.48 ± 0.066
GENIDADNDGPRINNIS [SNF2] | 3.53 ± 0.11
GFSMNNPYNIVPQGKIV [SMC3] | 2.93 ± 0.071
GFSPTSPTYSPTSPAYS [RPO21] | 2.74 ± 0.043
GGAYTVSTAAAATVRST [RPL43A] | 2.25 ± 0.049
GGLFGNSAQNNSTTSGG [YGR119C/NUP57] | 3.36 ± 0.11
GGQGNTDDYFEELRDLY [FAS1] | 3.51 ± 0.073
GGSNYMSNLPFGLGYGD [RPC31] | 3.15 ± 0.19
GHLPEVSSKCNDIHLRF [ECM29] | 2.92 ± 0.082
GHRMKNAQSKLSLTLNT [SNF2] | 1.73 ± 0.04
GHVKPVRCVNCSKSIPK [RPS26A] | 2.7 ± 0.11
GIACAGKGLQSAIDVLD [RPN2] | 2.52 ± 0.077
GIDQYSFNVKENQPFHG [AAR2] | 2.88 ± 0.058
GIGALFTQQELQKQMGI [RPC34] | 3.39 ± 0.095
GIKKHSLWRRTVYSLSQ [YDL116W/NUP84] | 1.29 ± 0.071
GIKLQMQNSKVESVCQK [SMC4] | 2.45 ± 0.077
GIKPPKGVLLYGPPGTG [RPT4] | 2.62 ± 0.072

Sequence | protein stability index
GIRGKLVTIEGALIHKA [SMC1] | 2.95 ± 0.17
GITHFRAGMTHEDEKLI [PRP8] | 2.47 ± 0.065
GKAKGDIPGVRFKVVKV [RPS23A] | 3.42 ± 0.18
GKEFGTTPEKPEETPLE [FAS2] | 2.7 ± 0.076
GKQIKSTIYNWGDNKLA [YML103C/NUP188] | 3.18 ± 0.15
GKRHIFDVNTLCLMTWK [CDC53] | 1.75 ± 0.066
GKRQLMKAVGEYMKRHP [SEC65] | 3.31 ± 0.091
GLCGAGTNNARLAQLLR [RPN1] | 1.79 ± 0.047
GLIVNPVKVSGTIKKIE [POP5] | 2.97 ± 0.19
GLTTVWLLSALGNSIVK [REC8] | 2.31 ± 0.075
GLVHDLCHPKKEKYGLA [SMC1] | 2.84 ± 0.12
GMGGGMPDMNEMMKMMQ [SRP54] | 3.51 ± 0.23
GMGIGFIDHHAAIRQPT [POP1] | 2.94 ± 0.086
GMNLLSNLSQNVVPYHR [SWI1] | 2.88 ± 0.1
GNAVTVTEDGTVVTVVS [RPL22A] | 1.67 ± 0.078
GNDNLIKAPTVAADGKL [YLR335W/NUP2] | 2.93 ± 0.09
GNDTISKFYNMKQPYVF [SSN2] | 3.05 ± 0.11
GNGKLSEHFLYLAKELN [RPN1] | 2.19 ± 0.18
GNIVKEFENKFQNSYKP [YMR129W/POM152] | 3.14 ± 0.13
GNNKDLKNTMQYLTNFS [RPB4] | 3.02 ± 0.072
GNNTELTKTTVNISAVD [YCG1] | 3.24 ± 0.071
GNQRKILQYSRTWYESF [YJR042W/NUP85] | 2.79 ± 0.1
GNRYLEKRLNLRVEHIK [RPL21A] | 2.96 ± 0.086
GNSESKVEKGVNIEPFN [LIN1] | 3.67 ± 0.17

Sequence | protein stability index
GNVIQFIYGEDGMDAAH [RPO21] | 2.58 ± 0.06
GNYIKTENATENDQQDN [LIN1] | 2.62 ± 0.071
GQHKNNTSLNINGWKFE [SWP82] | 3.21 ± 0.074
GQKNEVRILRLITTNSV [SNF2] | 1.95 ± 0.052
GQLGLDDNDVPGPLPDT [YLR018C/POM34] | 2.94 ± 0.14
GRENFVYANNPEVSDDG [SIR3] | 3.08 ± 0.085
GRGGSGWKPYYKLFIWL [YML031W/NDC1] | 1.78 ± 0.052
GRHVATCSSDQHIKVFK [YGL100W/SEH1] | 2.76 ± 0.059
GRMDMTRLYDYEIRDID [SSN2] | 2.94 ± 0.15
GRRKTWKRQNTLSLWRY [RPL15A] | 3.11 ± 0.11
GRTPNISNGTINIQKKL [SIR4] | 2.64 ± 0.048
GRVKALEQFMERNNIGE [YDL116W/NUP84] | 2.68 ± 0.08
GSCTRQLAGKSGEDTNV [YOR098C/NUP1] | 3.51 ± 0.15
GSEEKAFVPKKRKTNII [SRP54] | 3.2 ± 0.077
GSEVRLRDDTLPKAWIS [COR1] | 2.75 ± 0.065
GSGKSNMMDAISFVLGV [SMC1] | 3.17 ± 0.074
GSGSRLNRLPAASLGDM [RPL23A] | 2.6 ± 0.18
GSKKGQEGKISSVYRLK [RPL26A] | 2.94 ± 0.096
GSKMEAKNEDDPAHSLN [AAR2] | 1.27 ± 0.13
GSLACDTADEAKTLIPS [RPB4] | 3.42 ± 0.086
GSNNGFGNKPAGSTGFS [YGR119C/NUP57] | 1.24 ± 0.083
GSNQQSSTGGGLFGNKP [YGR119C/NUP57] | 3.28 ± 0.084
